Data on 1 protein can be found in paper doi:10.1101/2022.09.03.506457v1.

What is called Km is the concentration of substrate that gives half-maximal velocity.

Substrate in the data set: O=C(O)C[C@H](O)C(=O)O
Description: purified protein. It is filed as biochemical, Methanocaldococcus jannaschii. As to conditions: pH 7.2, 50 mM Tris-HCl, 70 °C.

B1: MjFH (MjFHαβ), holo, Fe-S reconstituted (Methanocaldococcus jannaschii DSM 2661) (protein)
chain 1: MKISDVVVELFREAAIYLPEDVKNALEEAYKKESSEISKNTLKAIIENNKIAEETQVPLCQDTGVPIVFLKIGKNINSSEIMKIIEEIKEGVKKATEEVPLRPNVVHPLTRENFKTNVGLNSPFINIEFDESLDREIEIIAFPKGAGSENMSALKMLKPSDGIEGIKNFVLETIANAGGKPCPPIVVGIGIGGTADVALKLAKKALLRKIGERHRDKEIANLEKELLEKINSLGIGAMGLGGDITALDVFIEIAGCHTASLPVGICIQCWADRRAIKRIKLDAKL
chain 2: MEYTFNKLTKKDVKKLKVGDIVYLNGKIYTARDEAHLKIIEMLKSNEKLPFDLNESIIYHAGPIMKKVNDSWVCVSIGPTTSARMNDVEEEFIKLTNISAIVGKGGMKKELLKTFEDYGVVYLAAPGGCAALLANSVKRVDNVYFLDELGMPEAVWELEVNNFGPLIVAMDSHGNSIYEEVNKKVYEKLNELIGL
With B1, the Km was found to be 1554 ± 169 µM.
